Drawing on patent publication US20240270821A1, “GIP/GLP1/GCG TRI-RECEPTOR AGONISTS AND USES THEREOF” (priority 2023, published 2024), this text covers Relative cAMP EC50 and cAMP Rel EC50 (in the presence of 1% HSA) for eleven molecules.

Substitutions are numbered along the chain they refer to.

To fix the notation:
T1: human GIP receptor (human) (UniProt P48546)
T1 sequence (looked up): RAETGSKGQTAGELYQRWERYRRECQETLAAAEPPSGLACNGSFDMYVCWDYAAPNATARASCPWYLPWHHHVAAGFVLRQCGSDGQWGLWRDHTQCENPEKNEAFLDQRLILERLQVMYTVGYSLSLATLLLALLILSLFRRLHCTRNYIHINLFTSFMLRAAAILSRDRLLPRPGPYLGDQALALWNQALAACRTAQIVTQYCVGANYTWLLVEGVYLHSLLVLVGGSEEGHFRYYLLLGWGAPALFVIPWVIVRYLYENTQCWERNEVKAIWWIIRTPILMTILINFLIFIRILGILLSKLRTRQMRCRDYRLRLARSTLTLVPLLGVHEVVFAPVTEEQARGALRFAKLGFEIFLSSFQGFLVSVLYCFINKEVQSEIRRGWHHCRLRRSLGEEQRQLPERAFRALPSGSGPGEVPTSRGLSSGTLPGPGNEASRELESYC

B1: Example 640 (peptide)
chain: YXQGTXTSDXSIXLDXKAQXEFIEXLIEGGPSSGAPPPSGS
modifications: non-natural residues; Lys acylated C18 diacid; C-terminal amide; synthetic construct; SITE 2: note = 2-Aminoisobutyric Acid; SITE 6: note = alpha-methyl-2-fluoro-L-phenylalanine; SITE 10: note = 3-(4-Pyridyl)-L-alanine; SITE 13: note = alpha-methyl-leucine; SITE 16: note = L-ornithine; SITE 17: note = Lysine is chemically modified through conjugation of the epsil
B2: Example 642 (peptide)
chain: B1 chain with I27A
modifications: non-natural residues; acylated Lys; C-terminal amide; synthetic construct; SITE 2: note = 2-Aminoisobutyric Acid; SITE 6: note = alpha-methyl-2-fluoro-L-phenylalanine; SITE 10: note = 3-(4-Pyridyl)-L-alanine; SITE 13: note = alpha-methyl-leucine; SITE 16: note = L-ornithine; SITE 17: note = Lysine is chemically modified through conjugation of the epsil
B3: Example 643 (peptide)
chain: B1 chain with I27Q
modifications: non-natural residues, acylated Lys (AEEA-γGlu-C18 diacid), C-terminal amide; synthetic construct; SITE 2: note = 2-Aminoisobutyric Acid; SITE 6: note = alpha-methyl-2-fluoro-L-phenylalanine; SITE 10: note = 3-(4-Pyridyl)-L-alanine; SITE 13: note = alpha-methyl-leucine; SITE 16: note = L-ornithine; SITE 17: note = Lysine is chemically modified through conjugation of the epsil
B4: Example 645 (peptide)
chain: B1 chain with I27L, A35E
modifications: non-natural residues; lipidated Lys; C-terminal amide; synthetic construct; SITE 2: note = 2-Aminoisobutyric Acid; SITE 6: note = alpha-methyl-2-fluoro-L-phenylalanine; SITE 10: note = 3-(4-Pyridyl)-L-alanine; SITE 13: note = alpha-methyl-leucine; SITE 16: note = L-ornithine; SITE 17: note = Lysine is chemically modified through conjugation of the epsil
B5: Example 644 (peptide)
chain: B1 chain with A35E
modifications: non-natural residues; lipidated Lys AEEA-γGlu-C18 diacid; C-term amide; synthetic construct; SITE 2: note = 2-Aminoisobutyric Acid; SITE 6: note = alpha-methyl-2-fluoro-L-phenylalanine; SITE 10: note = 3-(4-Pyridyl)-L-alanine; SITE 13: note = alpha-methyl-leucine; SITE 16: note = L-ornithine; SITE 17: note = Lysine is chemically modified through conjugation of the epsil
B6: Example 646 (peptide)
chain: B1 chain with I27A
modifications: Aib, αMeF(2F), 4Pal, Orn, Me4Pal, αMeY; K (γGlu)2-C18 diacid; amide; synthetic construct; SITE 2: note = 2-Aminoisobutyric Acid; SITE 6: note = alpha-methyl-2-fluoro-L-phenylalanine; SITE 10: note = 3-(4-Pyridyl)-L-alanine; SITE 13: note = alpha-methyl-leucine; SITE 16: note = L-ornithine; SITE 17: note = Lysine is chemically modified through conjugation of the epsil
B7: Example 641 (peptide)
chain: B1 chain with I27L
modifications: Lys acylated AEEA-γGlu-C18 diacid; non-natural residues; C-terminal amide; synthetic construct; SITE 2: note = 2-Aminoisobutyric Acid; SITE 6: note = alpha-methyl-2-fluoro-L-phenylalanine; SITE 10: note = 3-(4-Pyridyl)-L-alanine; SITE 13: note = alpha-methyl-leucine; SITE 16: note = L-ornithine; SITE 17: note = Lysine is chemically modified through conjugation of the epsil
B8: Example 636 (peptide)
chain: YXQGTXTSDXSIXLDKKAQXXFIEYLAEGGPSSGEPPPSGSEE
modifications: non-natural residues; C18 diacid-(γ-Glu)2 acyl on Lys; C-terminal amide; synthetic construct; SITE 2: note = 2-Aminoisobutyric Acid; SITE 6: note = alpha-methyl-2-fluoro-L-phenylalanine; SITE 10: note = 3-(4-Pyridyl)-L-alanine; SITE 13: note = alpha-methyl-leucine; SITE 17: note = Lysine is chemically modified through conjugation of the epsilon-amino group of the Lysine
B9: Example 639 (peptide)
chain: B8 chain with A27Q
modifications: non-natural residues; K acylated (γGlu)2-C18 diacid; C-amide; synthetic construct; SITE 2: note = 2-Aminoisobutyric Acid; SITE 6: note = alpha-methyl-2-fluoro-L-phenylalanine; SITE 10: note = 3-(4-Pyridyl)-L-alanine; SITE 13: note = alpha-methyl-leucine; SITE 17: note = Lysine is chemically modified through conjugation of the epsilon-amino group of the Lysine
B10: Example 637 (peptide)
chain: B8 chain with A27S
modifications: Aib, αMeF(2F), 4Pal, Orn; acylated lysine; amide; synthetic construct; SITE 2: note = 2-Aminoisobutyric Acid; SITE 6: note = alpha-methyl-2-fluoro-L-phenylalanine; SITE 10: note = 3-(4-Pyridyl)-L-alanine; SITE 13: note = alpha-methyl-leucine; SITE 17: note = Lysine is chemically modified through conjugation of the epsilon-amino group of the Lysine
B11: Example 638 (peptide)
chain: B8 chain with A27T
modifications: Aib, αMeF(2F), 4Pal, αMeL, Orn; γGlu2-C18 diacid Lys; amide; synthetic construct; SITE 2: note = 2-Aminoisobutyric Acid; SITE 6: note = alpha-methyl-2-fluoro-L-phenylalanine; SITE 10: note = 3-(4-Pyridyl)-L-alanine; SITE 13: note = alpha-methyl-leucine; SITE 17: note = Lysine is chemically modified through conjugation of the epsilon-amino group of the Lysine

Chain of human glucagon receptor (human) (P47871 26-477): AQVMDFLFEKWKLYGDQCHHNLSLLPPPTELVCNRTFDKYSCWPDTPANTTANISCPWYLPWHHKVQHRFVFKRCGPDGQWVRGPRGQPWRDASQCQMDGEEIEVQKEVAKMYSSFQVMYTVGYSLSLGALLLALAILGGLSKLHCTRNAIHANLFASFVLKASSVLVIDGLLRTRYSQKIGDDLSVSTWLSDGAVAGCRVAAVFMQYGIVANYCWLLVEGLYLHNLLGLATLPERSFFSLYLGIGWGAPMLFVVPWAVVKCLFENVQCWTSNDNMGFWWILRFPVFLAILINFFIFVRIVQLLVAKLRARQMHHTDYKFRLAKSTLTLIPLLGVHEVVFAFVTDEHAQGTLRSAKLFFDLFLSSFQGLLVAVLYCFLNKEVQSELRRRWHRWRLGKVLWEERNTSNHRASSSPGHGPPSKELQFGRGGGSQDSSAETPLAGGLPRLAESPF
Chain of hGLP-1R (P43220 24-463): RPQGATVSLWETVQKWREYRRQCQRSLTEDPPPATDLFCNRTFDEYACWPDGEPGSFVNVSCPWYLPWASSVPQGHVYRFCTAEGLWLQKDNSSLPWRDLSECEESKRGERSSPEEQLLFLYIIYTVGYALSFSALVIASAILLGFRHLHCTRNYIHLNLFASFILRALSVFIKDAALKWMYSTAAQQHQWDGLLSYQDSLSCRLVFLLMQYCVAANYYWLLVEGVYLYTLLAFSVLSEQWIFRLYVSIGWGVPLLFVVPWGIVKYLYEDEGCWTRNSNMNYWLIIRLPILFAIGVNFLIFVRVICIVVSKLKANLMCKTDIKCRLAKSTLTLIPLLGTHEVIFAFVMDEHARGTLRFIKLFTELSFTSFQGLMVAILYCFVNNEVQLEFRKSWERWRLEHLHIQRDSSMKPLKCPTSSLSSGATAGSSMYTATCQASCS

One assay concerns the target hGLP-1R (Homo sapiens, UniProt P43220). The assay can be described thus: cell-based or functional assay.
Take B1: the Relative cAMP EC50 was 0.288 nM and the cAMP Rel EC50 (in the presence of 1% HSA) was determined as 27.8 nM.

On to B2, for which the Relative cAMP EC50 worked out at 0.474 nM and the cAMP Rel EC50 (in the presence of 1% HSA) was 67.1 nM.

With B3, the Relative cAMP EC50 is 0.741 nM and the cAMP Rel EC50 (in the presence of 1% HSA) is 60.1 nM.

As to B4, the Relative cAMP EC50 is 0.596 nM and the cAMP Rel EC50 (in the presence of 1% HSA) came to 76.3 nM.

For B5, the Relative cAMP EC50 worked out at 0.309 nM and the cAMP Rel EC50 (in the presence of 1% HSA) amounted to 34.3 nM.

B6: the Relative cAMP EC50 is 2.58 nM and the cAMP Rel EC50 (in the presence of 1% HSA) came to 90.5 nM.

On to B7, for which the Relative cAMP EC50 is 0.489 nM and the cAMP Rel EC50 (in the presence of 1% HSA) was determined as 68.3 nM.

B8: the Relative cAMP EC50 turned out to be 0.504 nM and the cAMP Rel EC50 (in the presence of 1% HSA) amounted to 36.6 nM.

Consider B9, for which the Relative cAMP EC50 was determined as 0.374 nM and the cAMP Rel EC50 (in the presence of 1% HSA) amounted to 27.9 nM.

B10: the Relative cAMP EC50 is 1.08 nM and the cAMP Rel EC50 (in the presence of 1% HSA) was 76.2 nM.

In the case of B11, the Relative cAMP EC50 turned out to be 0.4 nM and the cAMP Rel EC50 (in the presence of 1% HSA) turned out to be 36 nM.

The next assay addresses human glucagon receptor (human) (UniProt P47871). The assay can be described thus: cell-based or functional assay.
As to B1, the Relative cAMP EC50 worked out at 9.5 nM and the cAMP Rel EC50 (in the presence of 1% HSA) is 730 nM.

As for B2, the Relative cAMP EC50 came out at 3.49 nM and the cAMP Rel EC50 (in the presence of 1% HSA) came out at 519 nM.

Take B3: the Relative cAMP EC50 was found to be 16 nM and the cAMP Rel EC50 (in the presence of 1% HSA) is 1170 nM.

Regarding B4, the Relative cAMP EC50 was determined as 3.25 nM and the cAMP Rel EC50 (in the presence of 1% HSA) was 398 nM.

Turning to B5, the Relative cAMP EC50 was 5.91 nM and the cAMP Rel EC50 (in the presence of 1% HSA) came out at 626 nM.

For B6, the Relative cAMP EC50 was determined as 23.1 nM and the cAMP Rel EC50 (in the presence of 1% HSA) is 1260 nM.

Take B7: the Relative cAMP EC50 was 3.72 nM and the cAMP Rel EC50 (in the presence of 1% HSA) was found to be 451 nM.

B8: the Relative cAMP EC50 worked out at 9.28 nM and the cAMP Rel EC50 (in the presence of 1% HSA) was 935 nM.

For B9, the Relative cAMP EC50 is 8 nM and the cAMP Rel EC50 (in the presence of 1% HSA) was determined as 750 nM.

For the molecule B10, the Relative cAMP EC50 was found to be 11.7 nM and the cAMP Rel EC50 (in the presence of 1% HSA) is 968 nM.

For the molecule B11, the Relative cAMP EC50 is 14 nM and the cAMP Rel EC50 (in the presence of 1% HSA) turned out to be 1090 nM.

The target of the next assay is T1, human GIP receptor (human). The assay can be described thus: cell-based or functional assay.
B1: the Relative cAMP EC50 was determined as 0.00696 nM and the cAMP Rel EC50 (in the presence of 1% HSA) came to 0.591 nM.

As to B2, the Relative cAMP EC50 amounted to 0.00796 nM and the cAMP Rel EC50 (in the presence of 1% HSA) was found to be 0.791 nM.

As to B3, the Relative cAMP EC50 is 0.0223 nM and the cAMP Rel EC50 (in the presence of 1% HSA) turned out to be 1.61 nM.

As to B4, the Relative cAMP EC50 was found to be 0.00724 nM and the cAMP Rel EC50 (in the presence of 1% HSA) turned out to be 0.863 nM.

With B5, the Relative cAMP EC50 stood at 0.00649 nM and the cAMP Rel EC50 (in the presence of 1% HSA) was determined as 0.601 nM.

On to B6, for which the Relative cAMP EC50 is 0.0336 nM and the cAMP Rel EC50 (in the presence of 1% HSA) was 1.09 nM.

On to B7, for which the Relative cAMP EC50 stood at 0.00819 nM and the cAMP Rel EC50 (in the presence of 1% HSA) came out at 0.832 nM.

In the case of B8, the Relative cAMP EC50 is 0.054 nM and the cAMP Rel EC50 (in the presence of 1% HSA) was determined as 4.3 nM.

Consider B9, for which the Relative cAMP EC50 came out at 0.0231 nM and the cAMP Rel EC50 (in the presence of 1% HSA) turned out to be 2.04 nM.

Take B10: the Relative cAMP EC50 is 0.108 nM and the cAMP Rel EC50 (in the presence of 1% HSA) was determined as 7.23 nM.

Turning to B11, the Relative cAMP EC50 was 0.0354 nM and the cAMP Rel EC50 (in the presence of 1% HSA) is 2.39 nM.
